# Data: article PMC4858151, “Phosphorylation of Human Choline Kinase Beta by Protein Kinase A: Its Impact on Activity and Inhibition” (PLoS ONE, 2016)
# How the values were obtained:
# Format in all cases: biochemical, Homo sapiens
# [1] = substrate: NCCO; assay: Michaelis-Menten kinetics (Km), PK-LDH coupled assay; details: MgCl2, ATP
# [2] = substrate: C[N+](C)(C)CCO; assay: as above; details: MgCl2, ATP choline binding site
# purified protein = substrate: Nc1ncnc2c1ncn2[C@@H]1O[C@H](COP(=O)(O)OP(=O)(O)OP(=O)(O)O)[C@@H](O)[C@H]1O; assay: purified protein; details: MgCl2
Protein,Km [1],Vmax [1],Km [2],Vmax [2],kcat [2],kcat/Km [2],Km (purified protein),Vmax (purified protein),kcat (purified protein),kcat/Km (purified protein),kcat [1],kcat/Km [1]
"choline kinase beta (CKβ) (Homo sapiens) (protein, purified recombinant unphosphorylated CKβ) AAEATAVAGSGAVGGCLAKDGLQQSKCPDTTPKRRRASSLSRDAERRAYQWCREYLGGAWRRVQPEELRVYPVSGGLSNLLFRCSLPDHLPSVGEEPREVLLRLYGAILQGVDSLVLESVMFAILAERSLGPQLYGVFPEGRLEQYIPSRPLKTQELREPVLSAAIATKMAQFHGMEMPFTKEPHWLFGTMERYLKQIQDLPPTGLPEMNLLEMYSLKDEMGNLRKLLESTPSPVVFCHNDIQEGNILLLSEPENADSLMLVDFEYSSYNYRGFDIGNHFCEWVYDYTHEEWPFYKARPTDYPTQEQQLHFIRHYLAEAKKGETLSQEEQRKLEEDLLVEVSRYALASHFFWGLWSILQASMSTIEFGYLDYAQSRFQFYFQQKGQLTSVHSSS",0.26 ± 0.01 mM,14.3 µmol/min/mg,0.42 ± 0.06 mM,64.3 µmol/min/mg,48.2 s⁻¹,115000 M⁻¹ s⁻¹,0.65 ± 0.03 mM,72.5 µmol/min/mg,21.5 s⁻¹,39100 M⁻¹ s⁻¹,,
"choline kinase beta (CKβ) (Homo sapiens; S39D/S40D) (protein, purified S39D/S40D CKβ) AAEATAVAGSGAVGGCLAKDGLQQSKCPDTTPKRRRADDLSRDAERRAYQWCREYLGGAWRRVQPEELRVYPVSGGLSNLLFRCSLPDHLPSVGEEPREVLLRLYGAILQGVDSLVLESVMFAILAERSLGPQLYGVFPEGRLEQYIPSRPLKTQELREPVLSAAIATKMAQFHGMEMPFTKEPHWLFGTMERYLKQIQDLPPTGLPEMNLLEMYSLKDEMGNLRKLLESTPSPVVFCHNDIQEGNILLLSEPENADSLMLVDFEYSSYNYRGFDIGNHFCEWVYDYTHEEWPFYKARPTDYPTQEQQLHFIRHYLAEAKKGETLSQEEQRKLEEDLLVEVSRYALASHFFWGLWSILQASMSTIEFGYLDYAQSRFQFYFQQKGQLTSVHSSS",0.57 ± 0.02 mM,28.4 µmol/min/mg,0.46 ± 0.06 mM,60.4 µmol/min/mg,45.3 s⁻¹,98500 M⁻¹ s⁻¹,0.5853 ± 0.03 mM,67.3 µmol/min/mg,21.3 s⁻¹,37400 M⁻¹ s⁻¹,45.3 s⁻¹,98500 M⁻¹ s⁻¹
